In patent US20190016812A1:
Positions count from the first letter of the chain named.

B1: SC113.187 (antibody, V domains shown)
VH: QVQLQQSGAELAKPGASVKMSCKASGYTFTSYWMYWVKQRPGQGLEWIGYINPSTGYTEYNQKFKDKATLTADKSSSTAYMQLNSLTSEDSAVYYCARSGYYGSSSLAYWGQGTLVTVSA
VL: NIVLTQSPASLAVSLGQRATISCRASESVDSYGNSFMHWYQQKPGQPPKLLIYLASNLESGVPARFSGSGSRTDFTLTIDPVEADDAATYYCQQNNEDPWTFGGGTKLEIK
B2: SC113.172 (antibody, V domains shown)
VH: QGHLQQSGAELMKPGASVKISCKATGYTFSSYWIEWVKQRPGHGLEWIGEILPGSGSTHYNEKFKGKATFTADTSSNTAYMQLISLTSEDSAVYYCARRDAMDYWGQGTSVTVSS
VL: DIVMTQSPSSLTVTPGEKVTMSCKSSQSLLTSGNQKNYLTWYQQQPGQPPKLLIYWASTRESGVPDRFTGSGSGTDFTLTISSVQAEDLAVYYCQNDYSYPYTFGGGTKLEIK
B3: SC113.190 (antibody, V domains shown)
VH: QVQLQQPGAELVKPGASVKLSCKASGYTFTTYYMYWVKQRPGQGLEWIGGINPSNGDTDFNEKFKSKATLTVDKSSSTVYMQLSSLTPEDSAVYFCTSAGYTSWFAYWGQGTLVTVSA
VL: QIVLTQSPALMSASPGEKVTMTCSASSSVSYMNWYQQKPRSSPKPWIYLTSHLASGVPARFSGSGSGTSYSLTISSMEAEDAATYYCQQWSSKPPTFGSGTKLEIK
B4: SC113.119 (antibody, V domains shown)
VH: QVQLQQSGTELARPGASVRLSCKASGYTFTSYGLSWVKQRTGQGLEWIGEIFPGSGNSNYNENFKGKATLTADKSSSTAYMQVSSLSSEDSVVYFCARGGFDFWGQGTSLTVSS
VL: DIQMTQSPSSLSASLGERVSLTCRASQEITGYLSWLQQKPDGTIKRLIYAASTLDSGVPKRFSGSRSGSDYSLTISSLESEDFADYYCLQYARYPPTFGGGTKLEIK
B5: SC113.118 (antibody, V domains shown)
VH: B4 VH with R19K, V83L, S87T, E89D, F103Y, S109T
VL: B4 VL with T30S, Y32F

Target: human TNFSF9 (R&D Systems; #2295-4L-025/CF) (human) (UniProt P41273)
Sequence (P41273 71-254 limits assumed): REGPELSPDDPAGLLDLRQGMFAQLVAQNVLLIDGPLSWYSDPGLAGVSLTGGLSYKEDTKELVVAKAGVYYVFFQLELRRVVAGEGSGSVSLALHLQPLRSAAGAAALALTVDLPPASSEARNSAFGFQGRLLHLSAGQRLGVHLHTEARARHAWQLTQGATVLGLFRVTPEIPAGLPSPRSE
Assay: MSD ELISA: TNFSF9 + 1 ug/mL antibody, binding to coated TNFRSF9

Row | % inhibition of ligand receptor interaction | Binder
1 | -2% | B1
2 | -3% | B2
3 | 8% | B3
4 | -8% | B4
5 | 3% | B5
